Entries after “also recorded” stand apart in the source; their conditions may differ.
How the values were obtained:
[1] = rat, in vivo, iv
Description: (§1) Thirty one (31) adult male Sprague-Dawley rats with indwelling jugular vein and carotid artery catheters (JVC/CAC) (Charles River Labs, Hollister, Calif.) were utilized for this study. […] All animals were food fasted overnight. Prior to dosing, the rats were weighed, the tails and cage cards were labeled for identification and the doses were calculated. Anesthesia was induced and maintained with 3.0-5.0% isoflurane. The JVC and CAC were externalized and flushed with HEP/saline (10 IU/mL HEP/mL saline). The predose sample was collected from the JVC and the catheters were plugged, and labeled to identify the jugular vein and carotid artery. When all of the animals had recovered from anesthesia and the predose samples were processed, the animals were dosed, intravenously (IV) via the JVC using a 1 mL syringe containing the appropriate test article and the dead volume of the catheter was flushed with 0.9% saline to ensure the animals received the correct dose.
(§2) Following a single IV dose, blood samples were collected from groups 1A, 2A, 3A and 4A, at 0 (pre-dose collected as described above), 0.03, 0.33, 2.0, 6.0, 12.0 and 72.0 hours and from Groups 1B, 2B, 3B and 4B at 0 (pre-dose collected as described above), 0.17, 1.0, 4.0, 8.0, 24.0 and 48.0 hours via the carotid artery catheter and processed as stated in the protocol. Following the last collection point, the animals were euthanized.
(§3) Concentrations in plasma that were below LLOQ were replaced with zeros prior to generating Tables and PK analysis. In the event that more than half (>50%) of the data points were below zero, mean concentration will not be shown in the figures or used in PK parameters estimation. The following PK parameters were estimated using plasma concentration-time profile of each animal:
(§4) C0 Extrapolated concentration to time “zero” Cmax Maximum (peak) concentration AUCall Area under the concentration-time from zero to time of last concentration value T1/2(Z) Terminal elimination half-life AUCinf Area under the concentration-time from zero to time infinity Tmax Time to reach maximum or peak concentration following administration CL Total body clearance Vz Volume of distribution based on terminal phase Vss Volume of distribution at steady state MRTlast Mean residence time to last observable concentration

[2] = Pharmacokinetic study, single IV dose in rats, plasma concentrations, noncompartmental analysis; conditions: for AUCINF / CL / Cmax / MRTlast / T½ / Vss: non-released PEG-BNP (or native BNP), equivalent protein mass 0.459 mg/kg IV, Sprague Dawley rats
Description: as §1, §2, §3, §4

Compound	peak plasma concentration compared with ButyrALD-10K-BNP [1]	clearance compared with ButyrALD-10K-BNP ([2]; IV, rats, in words)	half-life compared with ButyrALD-10K-BNP ([2]; IV, rats, in words)	AUCINF [2]	CL [2]	Cmax [2]	MRTlast [2]	T½ [2]	Vss [2]	peak concentration of conjugate in plasma ([1]; male, Sprague-Dawley)	time of peak concentration of released BNP [1]	time plasma conjugate concentrations remained above 100 ng/mL [1]	time released BNP stayed above 20 ng/mL [1]	half-life of conjugate in plasma ([2]; intact C2-FMOC-PEG2-40K-BNP, IV bolus, rats)	measurable BNP in plasma after BNP administration ([2]; IV, rats, in words)
ButyrALD-40K-BNP: non-releasable 40 kDa mPEG2-Butyr-ALD mono-PEG conjugate of BNP-32, N-terminus directed	higher peak plasma concentration	lower clearance	longer half-life	41300 ng·h/mL	0.185 mL/min/kg	1410 ng/mL	24.0 h	26.1 h	0.631 L/kg						
ButyrALD-10K-BNP: non-releasable mPEG-Butyr-ALD-10K mono-PEG conjugate of BNP-32, N-terminus directed				96.6 ng·h/mL	79.17 mL/min/kg	355 ng/mL	0.368 h	0.272 h	2.27 L/kg						
C2-FMOC-PEG2-40K-BNP: releasable mono-PEG conjugate of BNP-32 with mPEG2-C2-fmoc-NHS-40K; hydrolysis generates unmodified peptide										1300 ng/mL	0.3 h	up to 24 h	8 h	15.0 h	
CC[C@H](C)[C@@H]1NC(=O)[C@H](CCCNC(=N)N)NC(=O)[C@H](CC(=O)O)NC(=O)[C@H](CCSC)NC(=O)[C@H](CCCCN)NC(=O)[C@H](CCCNC(=N)N)NC(=O)CNC(=O)[C@H](Cc2ccccc2)NC(=O)[C@@H](NC(=O)CNC(=O)[C@H](CO)NC(=O)CNC(=O)[C@H](CCC(N)=O)NC(=O)[C@@H](NC(=O)[C@H](CCSC)NC(=O)[C@H](CCCCN)NC(=O)[C@@H]2CCCN2C(=O)[C@@H](N)CO)C(C)C)CSSC[C@@H](C(=O)N[C@@H](CCCCN)C(=O)N[C@H](C(=O)N[C@@H](CC(C)C)C(=O)N[C@@H](CCCN=C(N)N)C(=O)N[C@@H](CCCN=C(N)N)C(=O)N[C@@H](Cc2cnc[nH]2)C(=O)O)C(C)C)NC(=O)CNC(=O)[C@H](CC(C)C)NC(=O)CNC(=O)[C@H](CO)NC(=O)[C@H](CO)NC(=O)[C@H](CO)NC(=O)[C@H](CO)NC1=O [BNP, nesiritide, reference compound]															No measurable plasma concentrations; also recorded: No BNP was measurable in plasma
